B1: 21520P2 (antibody, human IgG4 S228P, kappa, V domains shown)
VH: EVQLVESGGGLVQPGGSLRLSCAASGFTFGSYGMAWVRQAPGKGLEWVSAISGSGDYTNYADSVKRRFTISRDNSKNTLYLQMSSLRAEDTAVYYCAKEKTGTTGYLYSGMDVWGQGTTVTVSS
VL: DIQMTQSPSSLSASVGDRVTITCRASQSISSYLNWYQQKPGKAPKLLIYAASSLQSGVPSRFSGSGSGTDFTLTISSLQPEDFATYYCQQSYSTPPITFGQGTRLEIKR
notes: parental bivalent anti-CD40 mAb; common light chain; also called H4sH21520P2
B2: 21519P2 (antibody, human IgG4 S228P, kappa, V domains shown)
VH: QLQLQESGPGLVRPSETLSLTCSVSGASMNTNNYYWGWIRQPPGKGLEWIGSGYYNGNTYYNPSLKSRVTISVDTSKNQFSLKLNSVTAADTAVYYCARQTPPRIIGSPNIWGQGTMVTVSS
VL: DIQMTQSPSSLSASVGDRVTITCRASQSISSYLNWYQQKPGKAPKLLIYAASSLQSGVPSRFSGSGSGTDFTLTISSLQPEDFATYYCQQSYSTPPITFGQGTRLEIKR
notes: parental bivalent anti-CD40 mAb; common light chain; also called H4sH21519P2
B3: REGN16431 (bispecific antibody, human IgG4 S228P, kappa)
heavy 1: QLQLQESGPGLVRPSETLSLTCSVSGASMNTNNYYWGWIRQPPGKGLEWIGSGYYNGNTYYNPSLKSRVTISVDTSKNQFSLKLNSVTAADTAVYYCARQTPPRIIGSPNIWGQGTMVTVSSASTKGPSVFPLAPCSRSTSESTAALGCLVKDYFPEPVTVSWNSGALTSGVHTFPAVLQSSGLYSLSSVVTVPSSSLGTKTYTCNVDHKPSNTKVDKRVESKYGPPCPPCPAPPVAGPSVFLFPPKPKDTLMISRTPEVTCVVVDVSQEDPEVQFNWYVDGVEVHNAKTKPREEQFNSTYRVVSVLTVLHQDWLNGKEYKCKVSNKGLPSSIEKTISKAKGQPREPQVYTLPPSQEEMTKNQVSLTCLVKGFYPSDIAVEWESNGQPENNYKTTPPVLDSDGSFFLYSRLTVDKSRWQEGNVFSCSVMHEALHNHYTQKSLSLSLGK
heavy 2: EVQLVESGGGLVQPGGSLRLSCAASGFTFGSYGMAWVRQAPGKGLEWVSAISGSGDYTNYADSVKRRFTISRDNSKNTLYLQMSSLRAEDTAVYYCAKEKTGTTGYLYSGMDVWGQGTTVTVSSASTKGPSVFPLAPCSRSTSESTAALGCLVKDYFPEPVTVSWNSGALTSGVHTFPAVLQSSGLYSLSSVVTVPSSSLGTKTYTCNVDHKPSNTKVDKRVESKYGPPCPPCPAPPVAGPSVFLFPPKPKDTLMISRTPEVTCVVVDVSQEDPEVQFNWYVDGVEVHNAKTKPREEQFNSTYRVVSVLTVLHQDWLNGKEYKCKVSNKGLPSSIEKTISKAKGQPREPQVYTLPPSQEEMTKNQVSLTCLVKGFYPSDIAVEWESNGQPENNYKTTPPVLDSDGSFFLYSRLTVDKSRWQEGNVFSCSVMHEALHNRFTQKSLSLSPGK
light: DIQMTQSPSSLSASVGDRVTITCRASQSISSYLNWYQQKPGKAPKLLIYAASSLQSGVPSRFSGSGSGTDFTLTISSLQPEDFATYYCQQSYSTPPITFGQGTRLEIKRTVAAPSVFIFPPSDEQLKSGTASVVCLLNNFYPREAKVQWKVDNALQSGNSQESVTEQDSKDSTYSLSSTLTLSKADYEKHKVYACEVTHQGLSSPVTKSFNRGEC
notes: D1 arm from 21519P2, D2 arm from 21520P2, common light chain; also called CD40xCD40 (21519 x 21520)
B4: REGN16432 (bispecific antibody, human IgG4 S228P, kappa)
heavy 1: EVQLVESGGGLVQPGGSLRLSCAASGFTFSSYAMNWVRQAPGKGLEWVSIISGTIGKTYYADSVKGRFTISRDNSKNTLYLQMNSLRGEDTAVYYCAKDTERDITGSPFDYWGQGTLVTVSSASTKGPSVFPLAPCSRSTSESTAALGCLVKDYFPEPVTVSWNSGALTSGVHTFPAVLQSSGLYSLSSVVTVPSSSLGTKTYTCNVDHKPSNTKVDKRVESKYGPPCPPCPAPPVAGPSVFLFPPKPKDTLMISRTPEVTCVVVDVSQEDPEVQFNWYVDGVEVHNAKTKPREEQFNSTYRVVSVLTVLHQDWLNGKEYKCKVSNKGLPSSIEKTISKAKGQPREPQVYTLPPSQEEMTKNQVSLTCLVKGFYPSDIAVEWESNGQPENNYKTTPPVLDSDGSFFLYSRLTVDKSRWQEGNVFSCSVMHEALHNHYTQKSLSLSLGK
heavy 2: B3 heavy 2
light: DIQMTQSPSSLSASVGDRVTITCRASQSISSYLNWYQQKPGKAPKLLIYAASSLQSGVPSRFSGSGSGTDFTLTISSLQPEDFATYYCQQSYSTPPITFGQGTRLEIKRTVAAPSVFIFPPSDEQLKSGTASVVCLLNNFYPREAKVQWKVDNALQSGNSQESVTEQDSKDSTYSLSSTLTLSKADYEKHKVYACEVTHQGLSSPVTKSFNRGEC
notes: D1 arm from 30027P2, D2 arm from 21520P2, common light chain; also called CD40xCD40 (30027 x 21520)
B5: 30027P2 (antibody, human IgG4 S228P, kappa, V domains shown)
VH: EVQLVESGGGLVQPGGSLRLSCAASGFTFSSYAMNWVRQAPGKGLEWVSIISGTIGKTYYADSVKGRFTISRDNSKNTLYLQMNSLRGEDTAVYYCAKDTERDITGSPFDYWGQGTLVTVSS
VL: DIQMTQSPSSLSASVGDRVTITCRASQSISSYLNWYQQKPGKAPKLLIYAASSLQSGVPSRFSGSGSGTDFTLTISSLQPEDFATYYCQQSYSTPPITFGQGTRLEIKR
notes: parental bivalent anti-CD40 mAb; common light chain; also called H4sH30027P2

target: T1, human CD40 (hCD40) expressed on cells (human, UniProt P25942 21-277); assay: cell-based or functional assay
T1 sequence (P25942 21-277): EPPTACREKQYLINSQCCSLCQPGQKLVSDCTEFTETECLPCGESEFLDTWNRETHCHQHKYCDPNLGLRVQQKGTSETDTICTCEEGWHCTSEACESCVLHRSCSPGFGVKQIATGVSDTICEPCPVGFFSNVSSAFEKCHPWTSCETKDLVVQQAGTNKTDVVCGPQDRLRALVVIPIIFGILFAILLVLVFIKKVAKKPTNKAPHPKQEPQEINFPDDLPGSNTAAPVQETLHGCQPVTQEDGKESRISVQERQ

EC50, no ligand, Raji NFkB-luc | IC50, 900 pM hCD40L, Raji NFkB-luc | Max % activation, no ligand, Raji NFkB-luc | Max % inhibition, 900 pM hCD40L, Raji NFkB-luc | Binder
> 100 nM | 7.7e-11 M | 25% | 81% | B1
 | 6.05e-11 M | 15% | 92% | B2
 | 1.07e-10 M | 13% | 82% | B3
 | 1.02e-10 M | 5% | 68% | B4
 | 8.95e-12 M | 9% | 67% | B5

target: T2, human CD40 extracellular domain expressed with a C-terminal myc-myc-hexahistidine tag (human); assay: ELISA blocking of 40 nM hCD40-mmH binding to 9His-hCD40L
T2 construct: also called hCD40-MMH; hCD40-mmH
Excerpt: An ELISA-based blocking assay was developed to determine the ability of C40×CD40 bispecific antibodies to block the binding of the hCD40 monomer to plate-coated hCD40L. The recombinant human CD40-mmH protein (hCD40-MMH; REGN3094; SEQ ID NO: 53) used in the experiments comprises a portion of the human CD40 extracellular domain (amino acids P20-R193) fused to 2×Myc peptide and 6×histadine (SEQ ID NO: 1110) at the C-terminus of human CD40, and the human CD40L (accession #NM_000074.2) with amino acids E108-L261 of the extracellular domain with 9×His-2×(SGGG)-IGER at the N-terminus (9His-hCD40L) was commercially obtained from Biolegend.
In the blocking assay, 9His-hCD40L was passively absorbed at a concentration of 5 μg/mL in PBS on a 96-well microtiter plate overnight at 4° C. […] In a separate 96-well microtiter plate, a fixed amount of 40 nM hCD40-mmH was pre-mixed with one of the following antibodies, at concentrations ranging from 977 pM to 1 μM in PBS+0.5% BSA: (1) CD40×CD40 bispecific antibodies (REGN16431, REGN16432, REGN16634, and REGN16335); (2) parental CD40 mAbs (bivalent antibodies comprising 2 fragment antigen-binding [Fab] arms identical to one of anti-CD40 Fab of CD40×CD40 antibodies); (3) CD40×Irrelevant antibodies (bivalent antibodies that incorporate one Fab arm identical to one of anti-CD40 Fab of CD40×CD40 antibodies and another Fab arm specific to an irrelevant antigen); and (4) human IgG4 with Fc mutation isotype control antibodies (REGN7540 and REGN4513). The fixed concentration of hCD40-mmH was selected to be near the concentration (EC₅₀ value) that generated 50% of the maximal binding to the plate-adhered 9His-hCD40L. After one-hour incubation, the antibody-antigen complexes were transferred to the microtiter plate coated with 9His-hCD40L. After one hour incubation at room temperature, the plates were washed, and plate-bound hCD40-mmH protein was detected with horseradish peroxidase (HRP) conjugated goat anti-c-Myc antibody. The plates were then developed using TMB substrate solution (BD Biosciences) according to the manufacturer's recommended procedure and the absorbance at 450 nm (OD₄₅₀) was measured on a SpectraMax i3×plate reader.

% Blocking at 1 uM mAb | IC50 | Binder
94% | 62 nM | B1
94% | 61 nM | B2
93% | 33 nM | B3
95% | 32 nM | B4
10% |  | B5

target: T1, human CD40 (hCD40) expressed on cells; assay: flow cytometry, Ramos 2G6.4C10 cells
Procedure: (§1) Cells were washed with 2% FBS (w/v) in 1×PBS (flow cytometry staining buffer) by centrifugation with benchtop Centrifuge 5810R (Eppendorf®, Hamburg, Germany). Cells were incubated for 30 minutes at 4° C. with serial dilutions of following antibodies ranging from 1.7 pM to 100 nM in flow cytometry staining buffer (1) anti-CD40×CD40 bispecific antibodies, or (2) parental anti-CD40 antibodies (bivalent antibodies comprising 2 fragment antigen-binding [Fab] arms identical to one of the two anti-CD40 Fab of bispecific anti-CD40×CD40 antibodies), or (3) anti-CD40×Irrelevant antibodies (bivalent antibodies that incorporate one Fab arm identical to one of anti-CD40 Fab of anti-CD40×CD40 antibodies and another Fab arm specific to an irrelevant antigen, i.e. birch pollen main allergen Bet v1), or (4) human IgG4 isotype control antibodies with Fc mutation. After washing, cell bound antibodies were detected with 2.5 μg/ml Allophycocyanin (APC)-conjugated goat anti-human IgG antibody specific for the Fcγ fragment (Jackson Immunoresearch, West Grove, PA) for 30 minutes at 4° C. Cells were washed and subsequently fixed with 50% solution of Cytofix™ Fixation Buffer (BD, Franklin Lakes, NJ) in flow cytometry staining buffer for 20 minutes at room temperature. Cells were washed and resuspended in flow cytometry staining buffer and stored at 4° C. for downstream flow cytometry analysis.
(§2) Acquisition of fluorescence signals were recorded on the ZE5 Cell Analyzer (Bio-Rad, Hercules, CA) according to the manufacturer's recommended procedure and flow cytometry data analysis was performed using the open-source R packages flowCore, flowStats, flowDensity, ggCyto, and flowAI. Multiplexed samples were deconvoluted and individual cell populations were identified based on their unique CellTrace™ fluorescence signature. APC Median Fluorescence intensity (MFI) was recorded to indicate the binding intensity of each antibody over a range of concentrations. Antibodies with MFI greater than 1500 at the highest tested concentration (100 nM) were classified as specific binders. In addition, direct binding signals (APC MFI) were analyzed as a function of the antibody concentration and data were fitted with a sigmoidal (four-parameter logistic) dose-response model using GraphPad Prism™ software.

EC50 | MFI at 100 nM | Binder
0.8 nM | 2450 MFI | B1
1.5 nM | 2410 MFI | B2
1.9 nM | 3850 MFI | B3
1.1 nM | 3850 MFI | B4
0.45 nM | 2620 MFI | B5

target: T1, human CD40 (hCD40) expressed on cells; assay: cell-based or functional assay; remark: another data set of the same source

EC50, no ligand, Ramos NFkB-luc | IC50, 500 pM hCD40L, Ramos NFkB-luc (three highest concentrations excluded, hook effect) | Max % activation, no ligand, Ramos NFkB-luc | Max % inhibition, 500 pM hCD40L, Ramos NFkB-luc | IC50, 500 pM hCD40L, Ramos NFkB-luc | EC50 (potentiation), 500 pM hCD40L, Ramos NFkB-luc | Binder
> 10 nM | 8.06e-11 M | 49% | 63% |  |  | B1
 |  | 13% | 88% | 3.09e-11 M |  | B2
 |  | 6% | 90% | 8.54e-11 M |  | B3
 |  | 4% | 94% | 4.92e-11 M |  | B4
 |  | 8% | -130% |  | 8.14e-12 M | B5

target: T3, Macaca fascicularis CD40 (mfCD40) expressed on HEK293/D9/mfCD40 cells (Macaca fascicularis, UniProt G7PG38 21-278); assay: flow cytometry, HEK293/D9/mfCD40 cells
T3 construct: whole, on cells; also called monkey CD40
Procedure: as §1, §2

EC50 | MFI at 100 nM | Binder
3.7 nM | 24100 MFI | B1
10 nM | 11500 MFI | B2
8.4 nM | 43100 MFI | B3
2.1 nM | 48700 MFI | B4
1 nM | 33900 MFI | B5

— patent publication US20250277048A1 (Regeneron, published 2025)
